Results from the Immune Epitope Database (IEDB).

Tests used:
HLA-A*02:06 = assay: IEDB peptide-MHC binding, purified MHC/competitive/radioactivity; filed as Kd, often an IC50 or EC50 that approximates it; ≥ and ≤ were set here for values at or beyond the usual limits of such assays
HLA-A*68:02 = assay: as above
HLA-B*54:01 = assay: as above
HLA-A*11:01 = assay: as above; settings: source organism: Vaccinia virus Copenhagen
HLA-A*31:01 = assay: as above; settings: source organism: Vaccinia virus Copenhagen
HLA-A*02:02 = assay: as above
HLA-B*53:01 = assay: as above
HLA-B*07:02 = assay: as above
HLA-A*33:01 = assay: as above; settings: source organism: Vaccinia virus Copenhagen
HLA-B*51:01 = assay: as above
HLA-A*02:03 = assay: as above
HLA-A*68:01 = assay: as above; settings: source organism: Vaccinia virus Copenhagen
HLA-A*03:01 = assay: as above; settings: source organism: Vaccinia virus Copenhagen
HLA-B*35:01 = assay: as above
HLA-A*02:01 [1] = assay: IEDB peptide-MHC binding, purified MHC/competitive/fluorescence; filed as Kd, often an IC50 or EC50 that approximates it; ≥ and ≤ were set here for values at or beyond the usual limits of such assays; settings: source organism: Variola virus
HLA-A*02:01 [2] = assay: IEDB peptide-MHC binding, purified MHC/competitive/radioactivity; filed as Kd, often an IC50 or EC50 that approximates it; ≥ and ≤ were set here for values at or beyond the usual limits of such assays
HLA-B*15:01 = assay: as above; settings: source organism: Vaccinia virus WR
HLA-B*08:01 = assay: as above
HLA-B*44:02 = assay: as above
HLA-B*44:03 = assay: as above; settings: source organism: Dengue virus 1 Brazil/97-11/1997
HLA-B*18:01 = assay: IEDB peptide-MHC binding, purified MHC/direct/fluorescence; filed as Kd, often an IC50 or EC50 that approximates it; ≥ and ≤ were set here for values at or beyond the usual limits of such assays; settings: source organism: dengue virus type 1
[3] = source organism: Vaccinia virus Copenhagen
[4] = source organism: Lassa virus Josiah
[5] = source organism: Vaccinia virus WR
[6] = source organism: Dengue virus 4 Philippines/H241/1956
[7] = source organism: SARS coronavirus Tor2
[8] = source organism: Mammarenavirus brazilense
[9] = source organism: Mammarenavirus lassaense

## ELEKTRRKL
HLA-A*02:06; source organism: Homo sapiens
  Kd: ≥ 45200 nM
HLA-A*68:02; source organism: Homo sapiens
  Kd: 6990 nM

## FLTSVINRV
HLA-B*54:01; [3]
  Kd: 904 nM
HLA-A*11:01
  Kd: ≥ 77.9 µM
HLA-A*31:01
  Kd: ≥ 77.9 µM
HLA-A*02:02; [3]
  Kd: 1.66 nM
HLA-B*53:01; [3]
  Kd: ≥ 61000 nM
HLA-B*07:02; [3]
  Kd: ≥ 77500 nM
HLA-A*33:01
  Kd: ≥ 77.7 µM
HLA-B*51:01; [3]
  Kd: ≥ 37200 nM
HLA-A*02:03; [3]
  Kd: 5.63 nM
HLA-A*68:01
  Kd: 9.6 µM
HLA-A*03:01
  Kd: ≥ 78 µM
HLA-B*35:01; [3]
  Kd: 19000 nM
HLA-A*02:01 [1]
  Kd: 3.5 nM

## LLSQRTRDI
HLA-A*02:01 [2]; [4]
  Kd: 12.5 µM

## FLLLCGRSCT
HLA-A*02:01 [2]; [4]
  Kd: ≥ 25 µM

## LLKPRCNPA
HLA-B*15:01
  Kd: 20.6 nM
HLA-B*08:01; [5]
  Kd: 1.16 nM

## GIRPRFLSQ
HLA-B*08:01; [3]
  Kd: 221 nM

## MEKLRIKGM
HLA-B*44:02; [6]
  Kd: 1260 nM
HLA-B*08:01; [6]
  Kd: 20.8 nM

## IMAVGLVSLL
HLA-B*08:01; [6]
  Kd: 863 nM

## APATVCGPKL
HLA-B*54:01; [7]
  Kd: ≥ 69900 nM
HLA-B*53:01; [7]
  Kd: ≥ 50000 nM
HLA-B*07:02; [7]
  Kd: 30.4 nM
HLA-B*51:01; [7]
  Kd: 7070 nM
HLA-B*35:01; [7]
  Kd: ≥ 69900 nM

## NLYDHALMSI
HLA-A*02:06; [4]
  Kd: 23.1 nM
HLA-A*68:02; [4]
  Kd: 75 nM
HLA-A*02:02; [4]
  Kd: 1.75 nM
HLA-A*02:03; [4]
  Kd: 0.543 nM

## DLNLGNLN
HLA-A*02:01 [2]; source organism: Hepatitis B virus subtype ayw
  Kd: ≥ 5 µM

## APFMSDLQF
HLA-B*54:01; [8]
  Kd: ≥ 36300 nM
HLA-B*53:01; [8]
  Kd: 31.9 nM
HLA-B*07:02; [8]
  Kd: 148 nM
HLA-B*51:01; [8]
  Kd: ≥ 39300 nM
HLA-B*35:01; [8]
  Kd: 7.55 nM

## MPILTLTRAL
HLA-B*54:01; [7]
  Kd: 85.4 nM
HLA-B*53:01; [7]
  Kd: 202 nM
HLA-B*07:02; [7]
  Kd: 9.46 nM
HLA-B*51:01; [7]
  Kd: 8.24 nM
HLA-B*35:01; [7]
  Kd: 13.7 nM

## TASLVMLLV
HLA-A*68:02; source organism: Dengue virus 4 Dominica/814669/1981
  Kd: 82.5 nM

## SPNLAWPLIV
HLA-B*54:01; [7]
  Kd: 556 nM
HLA-B*53:01; [7]
  Kd: 1660 nM
HLA-B*07:02; [7]
  Kd: 123 nM
HLA-B*51:01; [7]
  Kd: 2790 nM
HLA-B*35:01; [7]
  Kd: 887 nM

## IPFNVVTAM
HLA-B*54:01; [9]
  Kd: 504 nM
HLA-B*53:01; [9]
  Kd: 73.9 nM
HLA-B*07:02; [9]
  Kd: 18.5 nM
HLA-B*51:01; [9]
  Kd: 4230 nM
HLA-B*35:01; [9]
  Kd: 5.25 nM

## SFKFRPGSL
HLA-B*08:01; [5]
  Kd: 2.98 nM

## MPEKRNVVVV
HLA-B*54:01; [5]
  Kd: 40.6 nM
HLA-B*53:01; [5]
  Kd: 13200 nM
HLA-B*07:02; [5]
  Kd: 194 nM
HLA-B*51:01; [5]
  Kd: 2090 nM
HLA-B*35:01; [5]
  Kd: 4350 nM

## KPESRPFDLI
HLA-B*54:01; [5]
  Kd: 18500 nM
HLA-B*53:01; [5]
  Kd: 18600 nM
HLA-B*07:02; [5]
  Kd: 1380 nM
HLA-B*51:01; [5]
  Kd: ≥ 69600 nM
HLA-B*35:01; [5]
  Kd: ≥ 69900 nM

## TSAWVMYGT
HLA-A*68:02; [6]
  Kd: 1.7 nM

## MEVQLIRQM
HLA-B*44:02; source organism: Dengue virus 1 Brazil/97-11/1997
  Kd: 17.3 nM
HLA-B*44:03
  Kd: 18.9 nM
HLA-B*18:01
  Kd: 1.5 nM

## NRMEIFLVL
HLA-B*08:01; [3]
  Kd: 4.85 nM

## IPDELIDVL
HLA-B*54:01; [5]
  Kd: 12300 nM
HLA-B*53:01; [5]
  Kd: 458 nM
HLA-B*07:02; [5]
  Kd: 373 nM
HLA-B*51:01; [5]
  Kd: 2180 nM
HLA-B*35:01; [5]
  Kd: 256 nM

## DLNGAQIKL
HLA-A*68:02; source organism: Homo sapiens
  Kd: 2980 nM
HLA-A*02:01 [2]; source organism: Homo sapiens
  Kd: ≥ 50.6 µM
HLA-A*02:02; source organism: Homo sapiens
  Kd: 2620 nM
